From patent publication US20250250330A1 (REVOPSIS THERAPEUTICS, published 2025) come the findings set out here.

Assay [1] has as its target T1, His-tagged recombinant human ANG-2 (AcroBiosystems, Cat #AN2-H52H4) (human, UniProt O15123 275-496).
T1 construct: also called rhANG-2; rhANG-2-His; not shown: His tag
T1 sequence (looked up): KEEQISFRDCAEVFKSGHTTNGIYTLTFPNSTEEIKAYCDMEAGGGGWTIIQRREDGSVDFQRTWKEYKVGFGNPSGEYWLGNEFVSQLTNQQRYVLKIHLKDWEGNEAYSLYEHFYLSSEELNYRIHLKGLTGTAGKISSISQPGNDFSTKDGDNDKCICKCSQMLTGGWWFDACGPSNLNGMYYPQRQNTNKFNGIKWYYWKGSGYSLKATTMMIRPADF
Description: ELISA on coated human ANG-2. Background: An ELISA detects its analyte on a solid surface through an enzyme-linked reagent.

Assay [2] deals with T2, rhVEGF-B_AcroBio (AcroBio_VE6-H5225) (human, UniProt P49765 22-207).
T2 construct: Bought protein; not shown: His tag
T2 sequence (looked up): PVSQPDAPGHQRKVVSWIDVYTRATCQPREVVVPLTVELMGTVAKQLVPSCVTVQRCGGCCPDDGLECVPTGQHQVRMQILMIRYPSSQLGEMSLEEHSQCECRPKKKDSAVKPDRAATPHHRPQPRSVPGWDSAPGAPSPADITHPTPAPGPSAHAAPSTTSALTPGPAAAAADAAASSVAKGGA
Description: ELISA; target coated at 1 ug/mL, anti-human IgG Fc-HRP detection. On the procedure: First, the binding to rhVEGF-B was tested in comparison with rhVEGF₁₆₅. rhVEGF-B or rhVEGF₁₆₅ was used to coat Corning 9017 medium binding plates at 1 μg/mL and […] per well. […] Donkey anti-human IgG Fcγ-HRP was used for detection. OD450 nm readings were measured by Victor 3.

The target of assay [3] is T3, Recombinant human ANG-2 (R&D Systems, Cat #623-AN-025/CF) (human, UniProt O15123 19-496, limits assumed).
T3 construct: also called rhANG-2
T3 sequence (looked up): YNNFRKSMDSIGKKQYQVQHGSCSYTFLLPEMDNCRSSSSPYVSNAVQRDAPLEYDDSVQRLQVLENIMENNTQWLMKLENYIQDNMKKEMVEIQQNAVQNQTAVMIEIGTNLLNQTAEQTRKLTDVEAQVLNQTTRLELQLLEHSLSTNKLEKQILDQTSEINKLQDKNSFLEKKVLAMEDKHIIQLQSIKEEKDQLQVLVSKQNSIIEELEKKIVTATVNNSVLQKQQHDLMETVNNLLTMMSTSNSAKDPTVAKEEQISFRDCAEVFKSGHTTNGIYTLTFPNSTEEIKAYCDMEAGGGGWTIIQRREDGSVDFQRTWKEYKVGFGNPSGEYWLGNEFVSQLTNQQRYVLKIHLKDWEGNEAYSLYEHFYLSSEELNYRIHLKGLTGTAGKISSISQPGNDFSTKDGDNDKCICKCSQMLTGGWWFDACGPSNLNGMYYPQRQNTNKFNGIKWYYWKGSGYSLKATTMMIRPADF
The experiment in a line: ELISA on rhANG-2 by an independent team; ratio of average EC50 against Faricimab.

B1: RO-101 VEGF/ANG-2 bispecific surrobody (bispecific antibody, human IgG1, L234A L235A)
heavy 1: not shown
heavy 2: EVQLVESGGGLVKPGGSLRLSCAASGFTFSSYGMHWVRQAPGKGLEWVAGISADSGDKNYADSVKGRFTISRDNAKNSLYLQMNSLRAEDTAVYYCAKEFISWIYTFDYLDYWGQGTLVTVSSASTKGPSVFPLAPSSKSTSGGTAALGCLVKDYFPEPVTVSWNSGALTSGVHTFPAVLQSSGLYSLSSVVTVPSSSLGTQTYICNVNHKPSNTKVDKKVEPKSCDKTHTCPPCPAPEAAGGPSVFLFPPKPKDTLMISRTPEVTCVVVDVSHEDPEVKFNWYVDGVEVHNAKTKPREEQYNSTYRVVSVLTVLHQDWLNGKEYKCKVSNKALPAPIEKTISKAKGQPREPQVCTLPPSRDELTKNQVSLSCAVKGFYPSDIAVEWESNGQPENNYKTTPPVLDSDGSFFLVSKLTVDKSRWQQGNVFSCSVMHEALHNHYTQKSLSLSPG
light: QPVLHQPPAMSSALGTTIRLTCTLRNDHDIGVYSVYWYQQRPGHPPRFLLRYFSQSDKSQGPQVPPRFSGSKDVARNRGYLSISELQPEDEAMYYCAMGARSSVTHVFGSGTQLTVLSQPKATPSVTLFPPSSEELQANKATLVCLMNDFYPGILTVTWKADGTPITQGVEMTTPSKQSNNKYAASSYLSLTPEQWRSRRSYSCQVMHEGSTVEKTVAPAECS
notes: Format SgG1; also called Sample 1
The term EC50 denotes the concentration needed to bring the measured effect to its halfway point. With B1, the half-maximal effective concentration (EC50) in assay [1] is 7 pM; in assay [2], over 100000 pM. In addition, in assay [3], the “fold better than Faricimab” value stood at 58 fold.
